This note sets out measurements from PMC9424243, “Structure of a nucleosome-bound MuvB transcription factor complex reveals DNA remodelling” (Nature Communications, 2022).

T1: B-MYB^FL(1–700) (human, UniProt P10244 1-700)
T1 construct: B-MYB, human, residues 1-700 (B-MYB^FL), codon optimised CDS; source: Hi-5 insect cells, expressed separately, purified separately as per the MuvB protocol
T1 sequence (looked up): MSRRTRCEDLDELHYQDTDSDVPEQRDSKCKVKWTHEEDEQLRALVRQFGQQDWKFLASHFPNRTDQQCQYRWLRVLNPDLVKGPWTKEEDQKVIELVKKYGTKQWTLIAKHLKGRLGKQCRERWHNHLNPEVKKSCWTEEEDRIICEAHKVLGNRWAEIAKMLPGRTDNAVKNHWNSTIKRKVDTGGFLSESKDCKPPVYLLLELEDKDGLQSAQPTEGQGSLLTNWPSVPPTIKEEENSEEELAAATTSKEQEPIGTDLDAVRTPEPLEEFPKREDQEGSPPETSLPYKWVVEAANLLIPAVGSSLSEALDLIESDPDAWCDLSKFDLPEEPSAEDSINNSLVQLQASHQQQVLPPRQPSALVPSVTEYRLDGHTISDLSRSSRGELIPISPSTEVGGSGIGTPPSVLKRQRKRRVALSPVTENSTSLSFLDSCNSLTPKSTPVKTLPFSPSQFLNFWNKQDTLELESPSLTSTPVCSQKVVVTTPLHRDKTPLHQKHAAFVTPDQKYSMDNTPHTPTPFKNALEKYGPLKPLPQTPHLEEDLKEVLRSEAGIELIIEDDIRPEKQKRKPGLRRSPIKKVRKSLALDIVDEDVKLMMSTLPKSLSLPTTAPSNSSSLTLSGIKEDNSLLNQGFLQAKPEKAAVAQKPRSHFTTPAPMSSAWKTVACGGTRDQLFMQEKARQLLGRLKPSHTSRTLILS

B1: LIN9^FL(1–542) (natural protein, human, UniProt Q5TKA1 1-542, looked up)
chain: MAELDQLPDESSSAKALVSLKEGSLSNTWNEKYSSLQKTPVWKGRNTSSAVEMPFRNSKRSRLFSDEDDRQINTRSPKRNQRVAMVPQKFTATMSTPDKKASQKIGFRLRNLLKLPKAHKWCIYEWFYSNIDKPLFEGDNDFCVCLKESFPNLKTRKLTRVEWGKIRRLMGKPRRCSSAFFEEERSALKQKRQKIRLLQQRKVADVSQFKDLPDEIPLPLVIGTKVTARLRGVHDGLFTGQIDAVDTLNATYRVTFDRTGLGTHTIPDYEVLSNEPHETMPIAAFGQKQRPSRFFMTPPRLHYTPPLQSPIIDNDPLLGQSPWRSKISGSDTETLGGFPVEFLIQVTRLSKILMIKKEHIKKLREMNTEAEKLKSYSMPISIEFQRRYATIVLELEQLNKDLNKVLHKVQQYCYELAPDQGLQPADQPTDMRRRCEEEAQEIVRHANSSTGQPCVENENLTDLISRLTAILLQIKCLAEGGDLNSFEFKSLTDSLNDIKSTIDASNISCFQNNVEIHVAHIQSGLSQMGNLHAFAANNTNRD
notes: LIN9, human, residues 1-542 (LIN9^FL), codon optimised CDS; Subunit of the co-expressed MuvB, MuvB^core and MMB^core complexes; only DIRP and tudor domains are built in PDB 7R1D; source: Hi-5 insect cells co-infected with MuvB baculoviruses; purified as part of the complex (Strep-Tactin, 3C protease, SEC)
B2: LIN52^FL(1–116) (natural protein, human, UniProt Q52LA3 1-112, looked up)
chain: MASPTDGTDLEASLLSFEKLDRASPDLWPEQLPGVAEFAASFKSPITSSPPKWMAEIERDDIDMLKELGSLTTANLMEKVRGLQNLAYQLGLDESREMTRGKFLNILEKPKK
notes: LIN52, human, residues 1-116 (LIN52^FL), codon optimised CDS; source: Hi-5 insect cells co-infected with MuvB baculoviruses; purified as part of the complex (Strep-Tactin, 3C protease, SEC)
B3: LIN54^short(515–749) (domain or fragment, human, UniProt Q6MZP7 515-749, looked up)
chain: SESASRPRKPCNCTKSLCLKLYCDCFANGEFCNNCNCTNCYNNLEHENERQKAIKACLDRNPEAFKPKIGKGKEGESDRRHSKGCNCKRSGCLKNYCECYEAKIMCSSICKCIGCKNFEESPERKTLMHLADAAEVRVQQQTAAKTKLSSQISDLLTRPTPALNSGGGKLPFTFVTKEVAEATCNCLLAQAEQADKKGKSKAAAERMILEEFGRCLMSVINSAGKAKSDPCAMNC
notes: LIN54, human, residues 515-749 (non-conserved N-terminus removed), codon optimised CDS; also called short version of LIN54; source: Hi-5 insect cells co-infected with MuvB baculoviruses; purified as part of the complex (Strep-Tactin, 3C protease, SEC)
B4: LIN37^FL(1–246) (natural protein, human, UniProt Q96GY3 1-246, looked up)
chain: MFPVKVKVEKSELEMAKARNQLDAVLQCLLEKSHMDRERLDEEAGKTPSDTHNKDCSIAATGKRPSARFPHQRRKKRREMDDGLAEGGPQRSNTYVIKLFDRSVDLAQFSENTPLYPICRAWMRNSPSVRERECSPSSPLPPLPEDEEGSEVTNSKSRDVYKLPPPTPPGPPGDACRSRIPSPLQPEMQGTPDDEPSEPEPSPSTLIYRNMQRWKRIRQRWKEASHRNQLRYSESMKILREMYERQ
notes: LIN37, human, residues 1-246 (LIN37^FL), codon optimised CDS; Carries the StrepII x2 tag by which the MuvB complexes were purified; the tag was removed with 3C protease before the final SEC; also called FL-LIN37; source: Hi-5 insect cells co-infected with MuvB baculoviruses; purified as part of the complex (Strep-Tactin, 3C protease, SEC)

One test concerns the target T1, B-MYB^FL(1–700). In words: cryo-EM structure; MMB^core:NCP167 mixed at 2.5:1, GraFix (glutaraldehyde, sucrose gradient); nucleosome at 3.3 Å, MuvB^HEAD 7.5 Å and MuvB^TAIL 8.7 Å, known structures fitted. The note with it: both partners purified.
The test “LIN37^FL(1–246)” has as its target B4. In words: mass photometry; purified co-expressed complex diluted from 500 nM just before measurement; 20 mM HEPES pH 8, 150 mM NaCl, 0.5 mM TCEP. The note with it: both partners purified.
The target of the next test is T2, RbBP4^FL(1–425) (human, UniProt Q09028 1-425).
T2 construct: Subunit of the co-expressed MuvB complexes in which the StrepII x2 tag stands on LIN37; source: Hi-5 insect cells co-infected with MuvB baculoviruses; purified as part of the complex (Strep-Tactin, 3C protease, SEC)
T2 sequence (Q09028 whole entry): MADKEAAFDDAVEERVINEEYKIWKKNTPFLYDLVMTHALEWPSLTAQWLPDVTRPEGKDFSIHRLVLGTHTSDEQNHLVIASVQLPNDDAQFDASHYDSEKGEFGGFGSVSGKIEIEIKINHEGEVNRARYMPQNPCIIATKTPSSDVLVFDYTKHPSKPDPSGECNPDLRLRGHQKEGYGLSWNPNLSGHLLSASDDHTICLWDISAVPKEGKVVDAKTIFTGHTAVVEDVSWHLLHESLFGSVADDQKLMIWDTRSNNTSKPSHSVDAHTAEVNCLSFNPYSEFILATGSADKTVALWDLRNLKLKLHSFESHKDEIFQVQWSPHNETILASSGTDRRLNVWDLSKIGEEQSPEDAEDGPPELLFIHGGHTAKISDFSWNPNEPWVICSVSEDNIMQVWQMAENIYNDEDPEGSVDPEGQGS
In words: cross-linking; DSSO cross-linking mass spectrometry of 28 μM purified MuvB complex, 10 min on ice, monomeric SEC fraction analysed. The note with it: both partners purified.

The target in test [1] is B1. The description is as above. The note with it: both partners purified.
Test [2] has as its target B1. In words: SEC; subunits co-expressed in Hi-5 cells; complex held on Strep-Tactin by StrepII x2 on LIN37, washed with 1000 mM NaCl, tag cut with 3C, then SEC (S200 or Superose 6) in 20 mM HEPES pH 8, 150 mM NaCl, 0.5 mM TCEP. As to conditions: partners not purified. A general note: SEC sorts molecules by how far they enter the pores of the column.

For B1, the binding result in the test with B-MYB^FL(1–700) was “binds”. The stoichiometry N (in general, the number of molecules, sites or subunits per partner or assembly) with LIN37^FL(1–246) worked out at 1. Take B2: the “stoichiometry N” value with LIN37^FL(1–246) amounted to 1.

Regarding B3, the “stoichiometry N” value in the test with LIN37^FL(1–246) is 1. For the same molecule, the binding result in the test with RbBP4^FL(1–425) and with LIN9^FL(1–542) [1] was “binds” throughout. In the case of B4, the binding result with LIN9^FL(1–542) [2] is “binds”.
